Results: US20220213213A1 (published 2022)

T1: 5T4-Fc (obtained from Peter L. Stern, University of Manchester) (human, UniProt Q13641 32-355)
T1 construct: also called h5T4-Fc; recombinant 5T4; not shown: Fc part not specified
T1 sequence (looked up): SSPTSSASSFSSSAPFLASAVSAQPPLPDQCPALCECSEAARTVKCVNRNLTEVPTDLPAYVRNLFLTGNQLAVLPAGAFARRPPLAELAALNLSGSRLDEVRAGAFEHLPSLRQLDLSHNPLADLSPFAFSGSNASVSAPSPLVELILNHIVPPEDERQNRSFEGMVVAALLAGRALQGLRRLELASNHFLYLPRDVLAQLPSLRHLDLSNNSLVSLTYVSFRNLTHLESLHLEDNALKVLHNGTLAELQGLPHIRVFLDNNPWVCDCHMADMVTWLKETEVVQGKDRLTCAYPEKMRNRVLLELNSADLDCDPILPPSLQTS

T2: human/mouse 5T4 chimera aa173-420 (human/mouse chimera, UniProt Q13641 32-420)
T2 chain: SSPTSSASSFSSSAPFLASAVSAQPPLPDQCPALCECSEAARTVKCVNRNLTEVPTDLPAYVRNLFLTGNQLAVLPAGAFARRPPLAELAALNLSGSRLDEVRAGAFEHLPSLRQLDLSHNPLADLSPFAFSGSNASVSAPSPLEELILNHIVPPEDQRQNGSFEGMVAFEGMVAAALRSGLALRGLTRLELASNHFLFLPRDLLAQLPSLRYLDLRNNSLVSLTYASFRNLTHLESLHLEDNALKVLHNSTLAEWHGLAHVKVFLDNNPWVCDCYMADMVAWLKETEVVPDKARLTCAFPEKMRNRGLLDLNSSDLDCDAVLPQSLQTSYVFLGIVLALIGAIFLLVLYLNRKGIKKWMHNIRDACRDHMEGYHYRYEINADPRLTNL

T3: 5T4 on the SPR chip (amine-coupled on Biacore; biotinylated on MASS-1) (UniProt Q13641 32-355, limits assumed, biotinylated in the MASS-1 assays)
T3 construct: also called biotinylated 5T4
T3 sequence (looked up): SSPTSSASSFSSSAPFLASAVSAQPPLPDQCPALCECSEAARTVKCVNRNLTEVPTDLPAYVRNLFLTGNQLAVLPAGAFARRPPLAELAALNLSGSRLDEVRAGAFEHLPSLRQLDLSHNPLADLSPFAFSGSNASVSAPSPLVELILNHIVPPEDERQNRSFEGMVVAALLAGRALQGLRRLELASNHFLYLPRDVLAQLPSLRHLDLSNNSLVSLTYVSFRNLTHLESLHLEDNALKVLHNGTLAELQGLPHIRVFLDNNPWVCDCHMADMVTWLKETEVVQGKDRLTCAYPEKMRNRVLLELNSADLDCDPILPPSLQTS


How the values were obtained:
[1] = molecular target: T1, 5T4-Fc (obtained from Peter L. Stern, …); experiment: dual ELISA: coated 5T4-Fc, detection with CD137-bio
Procedure: Plates (#655074, Greiner Bio-One GmbH, Germany) were pre-coated with 0.5 μg/ml 5T4-Fc (obtained from Professor Peter Stern, University of Manchester) overnight. CD137-5T4 bsAb were diluted from 8 to 2×10⁻³ μg/ml in 1:4 dilutions and added in duplicates of 50 μl to each well. CD137-bio (Ancell #502-030) was used as detection antibody at 0.5 μg/ml and the binding was detected with Streptavidin-HRP (Pierce #21126). The ELISA was developed with SuperSignal ELISA PICO Chemiluminescent substrate (Thermo Scientific Pierce, Rockford, Ill. USA) during 2-10 minutes and read in an automated microplate based multi-detection reader (FLUOstar OPTIMA, Netherlands).

[2] = molecular target: T2, human/mouse 5T4 chimera aa173-420; experiment: flow cytometry, chimera-transfected cells
[3] = molecular target: T3, 5T4 on the SPR chip (amine-coupled on …); experiment: SPR Biacore, 5T4 amine-coupled, mAb injected
Procedure: Binding kinetics of the 5T4-specific mAbs have been studied using two different SPR-based platforms, the Biacore 3000 (GE Healthcare) and the MASS-1 platform (Sierra Sensors). Briefly, 5T4 was captured at the sensor chip surface either via direct amine coupling (Biacore platform) or using a streptavidin coated chip and biotinylated 5T4 (MASS-1 platform). The different 5T4-specific mAbs were then injected over the chip in increasing concentrations and the association and dissociation rates studied in real time. A 1:1 Langmuir model was used for curve fitting.

EC50 [1] | normalized % positive cells [2] | Kd [3] | koff [3] | Binder
1.91 nM |  |  |  | 1626-1208 (bispecific antibody) chain 1: not shown chain 2: DIQMTQSPSSLSASVGDRVTITCRASQSISSYLNWYQQKPGKAPKLLIYAASSLQSGVPSRFSGSGSGTDFTLTISSLQPEDFATYYCQQGTGYGPLTFGQGTKLEIKRTVAAPSVFIFPPSDEQLKSGTASVVCLLNNFYPREAKVQWKVDNALQSGNSQESVTEQDSKDSTYSLSSTLTLSKADYEKHKVYACEVTHQGLSSPVTKSFNRGEC
0.4 nM |  |  |  | 1626-1210 (bispecific antibody) heavy: not shown light: DIQMTQSPSSLSASVGDRVTITCRASQSISSYLNWYQQKPGKAPKLLIYAASSLQSGVPSRFSGSGSGTDFTLTISSLQPEDFATYYCQQGTGYGPLTFGQGTKLEIKRTVAAPSVFIFPPSDEQLKSGTASVVCLLNNFYPREAKVQWKVDNALQSGNSQESVTEQDSKDSTYSLSSTLTLSKADYEKHKVYACEVTHQGLSSPVTKSFNRGEC
 | -0.01 | 0.18 nM | 0.00081 s⁻¹ | 1212/1213 (antibody, V domains shown) VH: EVQLLESGGGLVQPGGSLRLSCAASGFTFSSYAMSWVRQAPGKGLEWVSYISSYGGYTSYADSVKGRFTISRDNSKNTLYLQMNSLRAEDTAVYYCARYHSGVLDYWGQGTLVTVSS VL: DIQMTQSPSSLSASVGDRVTITCRASQSISSYLNWYQQKPGKAPKLLIYAASSLQSGVPSRFSGSGSGTDFTLTISSLQPEDFATYYCQQYYYHYLLTFGQGTKLEIK
 | 0.3 |  |  | 1206/1207 (antibody, V domains shown) VH: EVQLLESGGGLVQPGGSLRLSCAASGFTFSGSSMSWVRQAPGKGLEWVSSIYYSGSGTYYADSVKGRFTISRDNSKNTLYLQMNSLRAEDTAVYYCARYGRNVHPYNLDYWGQGTLVTVSS VL: DIQMTQSPSSLSASVGDRVTITCRASQSISSYLNWYQQKPGKAPKLLIYAASSLQSGVPSRFSGSGSGTDFTLTISSLQPEDFATYYCQQGYYYLPTFGQGTKLEIK
